Reference: publication PMC3114773

Biological target: β-arrestin2 (β-arr2) (UniProt Q91YI4)
Assay: co-IP, anti-Myc IP, anti-GFP blot
Conditions: reference: wild type; sites S592,S594,T597,S599,S615,S619,S620,S642,S666,S774,S777,S791

Q: For “Smo (mSmo, mammalian Smoothened) (from UniProt P56726) SA mutant (taken as SA0–5)”, which “binding against the reference” value is on record?
A: weaker
